Numbered stars: 1 amine (or outer) side, 2 acyl side, 3 side chain; on linkers, the order of the positions; unused ones are H or OH. Bridge positions count the residues as written; N and C are the ends. Side chains are listed from the residue outwards. Ends that are not written are not given here. * marks the point of attachment. C20 diacid = O=C(O)CCCCCCCCCCCCCCCCCCC(=O)*; γGlu = O=C(O)[C@H](CCC(=O)[*:2])N[*:1]; AEEA = NCCOCCOCC(=O)O
B1: N^ε1-[(4S)-4-carboxy-4-(19-carboxynonadecanoylamino)butanoyl]-[His14,Arg17,Pro21,Pro27]-h-amylin (peptide)
peptide: K([γGlu-C20 diacid])CNTATCATQRLAHFLRHSSPNFGAIPSSTNVGSNTY-NH2
modifications: disulfide 2-7; N-terminus assumed
SMILES: CC[C@H](C)[C@H](NC(=O)[C@H](C)NC(=O)CNC(=O)[C@H](Cc1ccccc1)NC(=O)[C@H](CC(N)=O)NC(=O)[C@@H]1CCCN1C(=O)[C@H](CO)NC(=O)[C@H](CO)NC(=O)[C@H](Cc1c[nH]cn1)NC(=O)[C@H](CCCNC(=N)N)NC(=O)[C@H](CC(C)C)NC(=O)[C@H](Cc1ccccc1)NC(=O)[C@H](Cc1c[nH]cn1)NC(=O)[C@H](C)NC(=O)[C@H](CC(C)C)NC(=O)[C@H](CCCNC(=N)N)NC(=O)[C@H](CCC(N)=O)NC(=O)[C@@H](NC(=O)[C@H](C)NC(=O)[C@@H]1CSSC[C@H](NC(=O)[C@@H](N)CCCCNC(=O)CC[C@H](NC(=O)CCCCCCCCCCCCCCCCCCC(=O)O)C(=O)O)C(=O)N[C@@H](CC(N)=O)C(=O)N[C@@H]([C@@H](C)O)C(=O)N[C@@H](C)C(=O)N[C@@H]([C@@H](C)O)C(=O)N1)[C@@H](C)O)C(=O)N1CCC[C@H]1C(=O)N[C@@H](CO)C(=O)N[C@@H](CO)C(=O)N[C@H](C(=O)N[C@@H](CC(N)=O)C(=O)N[C@H](C(=O)NCC(=O)N[C@@H](CO)C(=O)N[C@@H](CC(N)=O)C(=O)N[C@H](C(=O)N[C@@H](Cc1ccc(O)cc1)C(N)=O)[C@@H](C)O)C(C)C)[C@@H](C)O
notes: also called compound 70
B2: N^ε1-[(4S)-4-carboxy-4-[[(4S)-4-carboxy-4-(19-carboxynonadecanoylamino)butanoyl]amino]butanoyl]-[His14,Arg17,Pro21,Pro27]-h-amylin (peptide)
peptide: K([γGlu-γGlu-C20 diacid])CNTATCATQRLAHFLRHSSPNFGAIPSSTNVGSNTY-NH2
modifications: disulfide 2-7; N-terminus assumed
SMILES: CC[C@H](C)[C@H](NC(=O)[C@H](C)NC(=O)CNC(=O)[C@H](Cc1ccccc1)NC(=O)[C@H](CC(N)=O)NC(=O)[C@@H]1CCCN1C(=O)[C@H](CO)NC(=O)[C@H](CO)NC(=O)[C@H](Cc1c[nH]cn1)NC(=O)[C@H](CCCNC(=N)N)NC(=O)[C@H](CC(C)C)NC(=O)[C@H](Cc1ccccc1)NC(=O)[C@H](Cc1c[nH]cn1)NC(=O)[C@H](C)NC(=O)[C@H](CC(C)C)NC(=O)[C@H](CCCNC(=N)N)NC(=O)[C@H](CCC(N)=O)NC(=O)[C@@H](NC(=O)[C@H](C)NC(=O)[C@@H]1CSSC[C@H](NC(=O)[C@@H](N)CCCCNC(=O)CC[C@H](NC(=O)CC[C@H](NC(=O)CCCCCCCCCCCCCCCCCCC(=O)O)C(=O)O)C(=O)O)C(=O)N[C@@H](CC(N)=O)C(=O)N[C@@H]([C@@H](C)O)C(=O)N[C@@H](C)C(=O)N[C@@H]([C@@H](C)O)C(=O)N1)[C@@H](C)O)C(=O)N1CCC[C@H]1C(=O)N[C@@H](CO)C(=O)N[C@@H](CO)C(=O)N[C@H](C(=O)N[C@@H](CC(N)=O)C(=O)N[C@H](C(=O)NCC(=O)N[C@@H](CO)C(=O)N[C@@H](CC(N)=O)C(=O)N[C@H](C(=O)N[C@@H](Cc1ccc(O)cc1)C(N)=O)[C@@H](C)O)C(C)C)[C@@H](C)O
notes: also called compound 92
B3: N^ε1-[2-[2-[2-(19-carboxynonadecanoylamino)ethoxy]ethoxy]acetyl]-[His14,Arg17,Pro21,Pro27]-h-amylin (peptide)
peptide: K([AEEA-C20 diacid])CNTATCATQRLAHFLRHSSPNFGAIPSSTNVGSNTY-NH2
modifications: disulfide 2-7; N-terminus assumed
SMILES: CC[C@H](C)[C@H](NC(=O)[C@H](C)NC(=O)CNC(=O)[C@H](Cc1ccccc1)NC(=O)[C@H](CC(N)=O)NC(=O)[C@@H]1CCCN1C(=O)[C@H](CO)NC(=O)[C@H](CO)NC(=O)[C@H](Cc1c[nH]cn1)NC(=O)[C@H](CCCNC(=N)N)NC(=O)[C@H](CC(C)C)NC(=O)[C@H](Cc1ccccc1)NC(=O)[C@H](Cc1c[nH]cn1)NC(=O)[C@H](C)NC(=O)[C@H](CC(C)C)NC(=O)[C@H](CCCNC(=N)N)NC(=O)[C@H](CCC(N)=O)NC(=O)[C@@H](NC(=O)[C@H](C)NC(=O)[C@@H]1CSSC[C@H](NC(=O)[C@@H](N)CCCCNC(=O)COCCOCCNC(=O)CCCCCCCCCCCCCCCCCCC(=O)O)C(=O)N[C@@H](CC(N)=O)C(=O)N[C@@H]([C@@H](C)O)C(=O)N[C@@H](C)C(=O)N[C@@H]([C@@H](C)O)C(=O)N1)[C@@H](C)O)C(=O)N1CCC[C@H]1C(=O)N[C@@H](CO)C(=O)N[C@@H](CO)C(=O)N[C@H](C(=O)N[C@@H](CC(N)=O)C(=O)N[C@H](C(=O)NCC(=O)N[C@@H](CO)C(=O)N[C@@H](CC(N)=O)C(=O)N[C@H](C(=O)N[C@@H](Cc1ccc(O)cc1)C(N)=O)[C@@H](C)O)C(C)C)[C@@H](C)O
notes: also called compound 90
B4: N^ε1N^ε1-[(4S)-4-carboxy-4-(19-carboxynonadecanoylamino)butanoyl]-[His14,Arg17,Pro21,Pro27,Pro34]-h-amylin (peptide)
peptide: K([γGlu-C20 diacid])CNTATCATQRLAHFLRHSSPNFGAIPSSTNVGPNTY-NH2
modifications: disulfide 2-7; N-terminus assumed
SMILES: CC[C@H](C)[C@H](NC(=O)[C@H](C)NC(=O)CNC(=O)[C@H](Cc1ccccc1)NC(=O)[C@H](CC(N)=O)NC(=O)[C@@H]1CCCN1C(=O)[C@H](CO)NC(=O)[C@H](CO)NC(=O)[C@H](Cc1c[nH]cn1)NC(=O)[C@H](CCCNC(=N)N)NC(=O)[C@H](CC(C)C)NC(=O)[C@H](Cc1ccccc1)NC(=O)[C@H](Cc1c[nH]cn1)NC(=O)[C@H](C)NC(=O)[C@H](CC(C)C)NC(=O)[C@H](CCCNC(=N)N)NC(=O)[C@H](CCC(N)=O)NC(=O)[C@@H](NC(=O)[C@H](C)NC(=O)[C@@H]1CSSC[C@H](NC(=O)[C@@H](N)CCCCNC(=O)CC[C@H](NC(=O)CCCCCCCCCCCCCCCCCCC(=O)O)C(=O)O)C(=O)N[C@@H](CC(N)=O)C(=O)N[C@@H]([C@@H](C)O)C(=O)N[C@@H](C)C(=O)N[C@@H]([C@@H](C)O)C(=O)N1)[C@@H](C)O)C(=O)N1CCC[C@H]1C(=O)N[C@@H](CO)C(=O)N[C@@H](CO)C(=O)N[C@H](C(=O)N[C@@H](CC(N)=O)C(=O)N[C@H](C(=O)NCC(=O)N1CCC[C@H]1C(=O)N[C@@H](CC(N)=O)C(=O)N[C@H](C(=O)N[C@@H](Cc1ccc(O)cc1)C(N)=O)[C@@H](C)O)C(C)C)[C@@H](C)O
notes: also called compound 67
B5: N{-1}-[(4S)-4-carboxy-4-(19-carboxynonadecanoylamino)butanoyl]-Gly[Arg1,His14,Arg17,Pro21,Pro27]-h-amylin (peptide)
peptide: {C20 diacid-γGlu}-GRCNTATCATQRLAHFLRHSSPNFGAIPSSTNVGSNTY-NH2
modifications: disulfide 3-8
SMILES: CC[C@H](C)[C@H](NC(=O)[C@H](C)NC(=O)CNC(=O)[C@H](Cc1ccccc1)NC(=O)[C@H](CC(N)=O)NC(=O)[C@@H]1CCCN1C(=O)[C@H](CO)NC(=O)[C@H](CO)NC(=O)[C@H](Cc1c[nH]cn1)NC(=O)[C@H](CCCNC(=N)N)NC(=O)[C@H](CC(C)C)NC(=O)[C@H](Cc1ccccc1)NC(=O)[C@H](Cc1c[nH]cn1)NC(=O)[C@H](C)NC(=O)[C@H](CC(C)C)NC(=O)[C@H](CCCNC(=N)N)NC(=O)[C@H](CCC(N)=O)NC(=O)[C@@H](NC(=O)[C@H](C)NC(=O)[C@@H]1CSSC[C@H](NC(=O)[C@H](CCCNC(=N)N)NC(=O)CNC(=O)CC[C@H](NC(=O)CCCCCCCCCCCCCCCCCCC(=O)O)C(=O)O)C(=O)N[C@@H](CC(N)=O)C(=O)N[C@@H]([C@@H](C)O)C(=O)N[C@@H](C)C(=O)N[C@@H]([C@@H](C)O)C(=O)N1)[C@@H](C)O)C(=O)N1CCC[C@H]1C(=O)N[C@@H](CO)C(=O)N[C@@H](CO)C(=O)N[C@H](C(=O)N[C@@H](CC(N)=O)C(=O)N[C@H](C(=O)NCC(=O)N[C@@H](CO)C(=O)N[C@@H](CC(N)=O)C(=O)N[C@H](C(=O)N[C@@H](Cc1ccc(O)cc1)C(N)=O)[C@@H](C)O)C(C)C)[C@@H](C)O
notes: also called compound 99

Molecular target: T1, human calcitonin receptor (human, UniProt P30988 25-474)
T1 sequence (looked up): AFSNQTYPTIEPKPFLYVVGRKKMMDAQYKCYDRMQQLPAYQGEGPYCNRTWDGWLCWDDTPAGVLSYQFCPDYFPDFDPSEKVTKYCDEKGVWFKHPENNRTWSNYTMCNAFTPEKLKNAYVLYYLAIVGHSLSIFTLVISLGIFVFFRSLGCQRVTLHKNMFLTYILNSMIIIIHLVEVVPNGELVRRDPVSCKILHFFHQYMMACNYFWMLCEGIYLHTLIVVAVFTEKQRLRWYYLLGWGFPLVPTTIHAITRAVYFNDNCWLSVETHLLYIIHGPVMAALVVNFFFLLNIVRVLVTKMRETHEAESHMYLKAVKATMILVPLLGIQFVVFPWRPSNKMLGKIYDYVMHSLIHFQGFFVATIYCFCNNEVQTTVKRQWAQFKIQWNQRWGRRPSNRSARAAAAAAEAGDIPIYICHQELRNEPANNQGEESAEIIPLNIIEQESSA
Test: cell-based or functional assay

| Binder | hCTR funct. EC50 [pM] |
| --- | --- |
| B1 | 715 |
| B2 | 2380 |
| B3 | 236 |
| B4 | 354 |
| B5 | 818 |
